Source: the supplement of paper PMC11316812
± gives the standard deviation of the averaged measurements.

Assays:
[1] = test system: hTERT-HMEC; experiment: percentage of EdU-negative (G0-arrested) nuclei per well, 72 h; higher = more G0 arrest; conditions: reference: sequence is the full UniProt precursor, the tested protein was the secreted form or ectodomain
[2] = test system: MCF7; experiment: as above; conditions: reference: sequence is the full UniProt precursor, the tested protein was the secreted form or ectodomain
[3] = protein concentration 0.0225 µM
[4] = protein concentration 0.0301575 µM
[5] = protein concentration 0.301575 µM
[6] = protein concentration 0.0182675 µM
[7] = protein concentration 0.182675 µM
[8] = protein concentration 0.01051 µM
[9] = protein concentration 0.1051 µM
[10] = protein concentration 0.0325714 µM
[11] = protein concentration 0.325714 µM
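Further: secreted proteins added to cultured cells, EdU pulse at the end, nuclei found by Hoechst imaging, EdU status from nuclear versus surrounding ring intensity ratio, PBS as neutral control.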

With “MLHLLALFLHCLPLASGDYDICKSWVTTDEGPTWEFYACQPKVMRLKDYVKVKVEPSGITCGDPPERFCSHENPYLCSNECDASNPDLAHPPRLMFDKEEEGLATYWQSITWSRYPSPLEANITLSWNKTVELTDDVVMTFEYGRPTVMVLEKSLDNGRTWQPYQFYAEDCMEAFGMSARRARDMSSSSAHRVLCTEEYSRWAGSKKEKHVRFEVRDRFAIFAGPDLRNMDNLYTRLESAKGLKEFFTLTDLRMRLLRPALGGTYVQRENLYKYFYAISNIEVIGRCKCNLHANLCSMREGSLQCECEHNTTGPDCGKCKKNFRTRSWRAGSYLPLPHGSPNACATAGSFGNCECYGHSNRCSYIDFLNVVTCVSCKHNTRGQHCQHCRLGYYRNGSAELDDENVCIECNCNQIGSVHDRCNETGFCECREGAAGPKCDDCLPTHYWRQGCYPNVCDDDQLLCQNGGTCLQNQRCACPRGYTGVRCEQPRCDPADDDGGLDCDRAPGAAPRPATLLGCLLLLGLAARLGR [Q96CW9]” the “percentage of EdU-negative” value [1, 3] was 5.1 ± 0.37%, the “percentage of EdU-negative” value ([1]; protein concentration 0.225 µM) was 5.79 ± 0.16% and the “percentage of EdU-negative” value [2, 3] was 28.5 ± 0.47%. The “percentage of EdU-negative” value ([2]; protein concentration 0.225 µM) was 28.61 ± 0.091%.
In the case of “MLIFWTITLFLLGAAKGKEVCYEDLGCFSDTEPWGGTAIRPLKILPWSPEKIGTRFLLYTNENPNNFQILLLSDPSTIEASNFQMDRKTRFIIHGFIDKGDESWVTDMCKKLFEVEEVNCICVDWKKGSQATYTQAANNVRVVGAQVAQMLDILLTEYSYPPSKVHLIGHSLGAHVAGEAGSKTPGLSRITGLDPVEASFESTPEEVRLDPSDADFVDVIHTDAAPLIPFLGFGTNQQMGHLDFFPNGGESMPGCKKNALSQIVDLDGIWAGTRDFVACNHLRSYKYYLESILNPDGFAAYPCTSYKSFESDKCFPCPDQGCPQMGHYADKFAGRTSEEQQKFFLNTGEASNFARWRYGVSITLSGRTATGQIKVALFGNKGNTHQYSIFRGILKPGSTHSYEFDAKLDVGTIEKVKFLWNNNVINPTLPKVGATKITVQKGEEKTVYNFCSEDTVREDTLLTLTPC”, the “percentage of EdU-negative” value [1, 4] is reported as 5.42 ± 0.23%, the “percentage of EdU-negative” value [1, 5] is reported as 5.14 ± 0.29% and the “percentage of EdU-negative” value [2, 4] is reported as 25.8 ± 0.77%. The “percentage of EdU-negative” value [2, 5] was 26.6 ± 1.5%.
In the case of “MLKALFLTMLTLALVKSQDTEETITYTQCTDGYEWDPVRQQCKDIDECDIVPDACKGGMKCVNHYGGYLCLPKTAQIIVNNEQPQQETQPAEGTSGATTGVVAASSMATSGVLPGGGFVASAAAVAGPEMQTGRNNFVIRRNPADPQRIPSNPSHRIQCAAGYEQSEHNVCQDIDECTAGTHNCRADQVCINLRGSFACQCPPGYQKRGEQCVDIDECTIPPYCHQRCVNTPGSFYCQCSPGFQLAANNYTCVDINECDASNQCAQQCYNILGSFICQCNQGYELSSDRLNCEDIDECRTSSYLCQYQCVNEPGKFSCMCPQGYQVVRSRTCQDINECETTNECREDEMCWNYHGGFRCYPRNPCQDPYILTPENRCVCPVSNAMCRELPQSIVYKYMSIRSDRSVPSDIFQIQATTIYANTINTFRIKSGNENGEFYLRQTSPVSAMLVLVKSLSGPREHIVDLEMLTVSSIGTFRTSSVLRLTIIVGPFSF”, the “percentage of EdU-negative” value [1, 6] is reported as 4.75 ± 0.46%, the “percentage of EdU-negative” value [1, 7] is reported as 15.7 ± 1.1% and the “percentage of EdU-negative” value [2, 6] is reported as 28 ± 2.2%. For the same sequence, the “percentage of EdU-negative” value [2, 7] was 29.1 ± 1.9%.
With “MLKKPLSAVTWLCIFIVAFVSHPAWLQKLSKHKTPAQPQLKAANCCEEVKELKAQVANLSSLLSELNKKQERDWVSVVMQVMELESNSKRMESRLTDAESKYSEMNNQIDIMQLQAAQTVTQTSADAIYDCSSLYQKNYRISGVYKLPPDDFLGSPELEVFCDMETSGGGWTIIQRRKSGLVSFYRDWKQYKQGFGSIRGDFWLGNEHIHRLSRQPTRLRVEMEDWEGNLRYAEYSHFVLGNELNSYRLFLGNYTGNVGNDALQYHNNTAFSTKDKDNDNCLDKCAQLRKGGYWYNCCTDSNLNGVYYRLGEHNKHLDGITWYGWHGSTYSLKRVEMKIRPEDFKP” the “percentage of EdU-negative” value [1, 8] was 4.85 ± 0.3%, the “percentage of EdU-negative” value [1, 9] was 5.52 ± 0.31% and the “percentage of EdU-negative” value [2, 8] was 24.6 ± 2.7%. The “percentage of EdU-negative” value [2, 9] was 25.2 ± 0.9%.
With “MLKPSLPFTSLLFLQLPLLGVGLNTTILTPNGNEDTTADFFLTTMPTDSLSVSTLPLPEVQCFVFNVEYMNCTWNSSSEPQPTNLTLHYWYKNSDNDKVQKCSHYLFSEEITSGCQLQKKEIHLYQTFVVQLQDPREPRRQATQMLKLQNLVIPWAPENLTLHKLSESQLELNWNNRFLNHCLEHLVQYRTDWDHSWTEQSVDYRHKFSLPSVDGQKRYTFRVRSRFNPLCGSAQHWSEWSHPIHWGSNTSKENPFLFALEAVVISVGSMGLIISLLCVYFWLERTMPRIPTLKNLEDLVTEYHGNFSAWSGVSKGLAESLQPDYSERLCLVSEIPPKGGALGEGPGASPCNQHSPYWAPPCYTLKPET” the “percentage of EdU-negative” value [1, 10] was 5.08 ± 0.64%, the “percentage of EdU-negative” value [1, 11] was 5.6 ± 1.3% and the “percentage of EdU-negative” value [2, 10] was 24.7 ± 0.8%. For the same sequence, the “percentage of EdU-negative” value [2, 11] was 26.37 ± 0.19%.
In the case of “MLLAWVQAFLVSNMLLAEAYGSGGCFWDNGHLYREDQTSPAPGLRCLNWLDAQSGLASAPVSGAGNHSYCRNPDEDPRGPWCYVSGEAGVPEKRPCEDLRCPETTSQALPAFTTEIQEASEGPGADEVQVFAPANALPARSEAAAVQPVIGISQRVRMNSKEKKDLGTLGYVLGITMMVIIIAIGAGIILGYSYKRGKDLKEQHDQKVCEREMQRITLPLSAFTNPTCEIVDEKTVVVHTSQTPVDPQEGTTPLMGQAGTPGA [Q96FE7]”, the “percentage of EdU-negative” value [1, 3] is reported as 4.79 ± 0.62%, the “percentage of EdU-negative” value ([1]; protein concentration 0.225 µM) is reported as 5.22 ± 0.39% and the “percentage of EdU-negative” value [2, 3] is reported as 24.9 ± 2%. The “percentage of EdU-negative” value ([2]; protein concentration 0.225 µM) was 25.1 ± 0.47%.
For “MLLEPGRGCCALAILLAIVDIQSGGCINITSSASQEGTRLNLICTVWHKKEEAEGFVVFLCKDRSGDCSPETSLKQLRLKRDPGIDGVGEISSQLMFTISQVTPLHSGTYQCCARSQKSGIRLQGHFFSILFTETGNYTVTGLKQRQHLEFSHNEGTLSSGFLQEKVWVMLVTSLVALQAL”, the “percentage of EdU-negative” value [1, 3] was 4.71 ± 0.094%, the “percentage of EdU-negative” value ([1]; protein concentration 0.225 µM) was 5.62 ± 0.37% and the “percentage of EdU-negative” value [2, 3] was 24.09 ± 0.069%. For the same sequence, the “percentage of EdU-negative” value ([2]; protein concentration 0.225 µM) was 28.4 ± 2.2%.
